Biological target: T1, HLA-A*02 (Homo sapiens, UniProt P04439, D140Y/D185E/D98H/E176V/E277Q/G131W/G231S/I119V/I121R/I166T/I218V/L300P/N151K/N90K/P208A/P217A/Q86G/Q94H/R138H/R169H)
T1 construct: made in house
Experiment: MHC binding assay, UV-ligand exchange with beta2m ELISA (peptide exchange yield)
Details: binding to HLA-A*02
Source text: Candidate peptides for T cell based therapies according to the present invention were further tested for their MHC binding capacity (affinity). The individual peptide-MHC complexes were produced by UV-ligand exchange, where a UV-sensitive peptide is cleaved upon UV-irradiation, and exchanged with the peptide of interest as analyzed. Only peptide candidates that can effectively bind and stabilize the peptide-receptive MHC molecules prevent dissociation of the MHC complexes. To determine the yield of the exchange reaction, an ELISA was performed based on the detection of the light chain (β2m) of stabilized MHC complexes. The assay was performed as generally described in Rodenko et al. (Rodenko et al., 2006).
96 well MAXISorp plates (NUNC) were coated over night with 2 ug/ml streptavidin in PBS at room temperature, washed 4× and blocked for 1h at 37° C. in 2% BSA containing blocking buffer. Refolded HLA-A*02:01/MLA-001 monomers served as standards, covering the range of 15-500 ng/ml. Peptide-MHC monomers of the UV-exchange reaction were diluted 100 fold in blocking buffer. Samples were incubated for 1h at 37° C., washed four times, incubated with 2 ug/ml HRP conjugated anti-32m for 1h at 37° C., washed again and detected with TMB solution that is stopped with […]. Absorption was measured at 450 nm. Candidate peptides that show a high exchange yield (preferably higher than 50%, most preferred higher than 75%) are generally preferred for a generation and production of antibodies or fragments thereof, and/or T cell receptors or fragments thereof, as they show sufficient avidity to the MHC molecules and prevent dissociation of the MHC complexes.

Row | Peptide exchange (MHC class I binding score, peptide exchange yield) | Substance
1 | ++++ (> = 75% = ++++) | 84 (ALCPRIHEV; listed as Homo sapiens) [compound 84]
2 | +++ (50%-75% = +++) | 85 (VLNDILVRA; listed as Homo sapiens) [compound 85]
3 | ++ (20%-49% = ++) | 86 (SVDSHFQEV; listed as Homo sapiens) [compound 86]
4 | ++ (20%-49% = ++) | 87 (TIYKDFVYI; listed as Homo sapiens) [compound 87]
5 | ++ (20%-49% = ++) | 88 (AQADHLPQL; listed as Homo sapiens) [compound 88]
6 | ++ (20%-49% = ++) | 89 (QLAPVFQRV; listed as Homo sapiens) [compound 89]
7 | +++ (50%-75% = +++) | 94 (LLLPAVPVGA; listed as Homo sapiens) [compound 94]
8 | ++++ (> = 75% = ++++) | 95 (GLLGSLFFL; listed as Homo sapiens) [compound 95]
9 | ++ (20%-49% = ++) | 98 (RLFPDFFTRVAL; listed as Homo sapiens) [compound 98]
10 | ++ (20%-49% = ++) | 99 (YLLQSVNQLLL; listed as Homo sapiens) [compound 99]
11 | + (<20% = +) | 100 (ALLGMIIVGV; listed as Homo sapiens) [compound 100]
12 | +++ (50%-75% = +++) | 101 (ALADFMLSL; listed as Homo sapiens) [compound 101]
13 | +++ (50%-75% = +++) | 102 (VLLDIQEVFQI; listed as Homo sapiens) [compound 102]
14 | +++ (50%-75% = +++) | 103 (YLVSEIFKA; listed as Homo sapiens) [compound 103]
15 | +++ (50%-75% = +++) | 104 (ALISWQPPRA; listed as Homo sapiens) [compound 104]
16 | +++ (50%-75% = +++) | 105 (ALLGTKILL; listed as Homo sapiens) [compound 105]
17 | +++ (50%-75% = +++) | 106 (FINDSIVYL; listed as Homo sapiens) [compound 106]
18 | +++ (50%-75% = +++) | 107 (LLVPTSGIYFV; listed as Homo sapiens) [compound 107]
19 | ++ (20%-49% = ++) | 108 (ILLKNLVTI; listed as Homo sapiens) [compound 108]
20 | ++ (20%-49% = ++) | 109 (SLDPSVTHL; listed as Homo sapiens) [compound 109]
21 | +++ (50%-75% = +++) | 110 (FLLGVSKEV; listed as Homo sapiens) [compound 110]

Row | Peptide exchange (MHC class I binding score, peptide exchange yield) | Substance
22 | ++ (20%-49% = ++) | 111 (AIVDLIHDI; listed as Homo sapiens) [compound 111]
23 | ++++ (> = 75% = ++++) | 112 (SLGKFTFDV; listed as Homo sapiens) [compound 112]
24 | ++ (20%-49% = ++) | 113 (FLERGLESA; listed as Homo sapiens) [compound 113]
25 | +++ (50%-75% = +++) | 114 (QLIQTLHAV; listed as Homo sapiens) [compound 114]
26 | ++ (20%-49% = ++) | 115 (SLDPDTLPAV; listed as Homo sapiens) [compound 115]
27 | +++ (50%-75% = +++) | 117 (KMPDVELFV; listed as Homo sapiens) [compound 117]
28 | +++ (50%-75% = +++) | 118 (QLWQFLVTL; listed as Homo sapiens) [compound 118]
29 | +++ (50%-75% = +++) | 119 (FIIQGLRSVGA; listed as Homo sapiens) [compound 119]
30 | + (<20% = +) | 120 (VTPVTVSAV; listed as Homo sapiens) [compound 120]
31 | +++ (50%-75% = +++) | 121 (FTIFRTISV; listed as Homo sapiens) [compound 121]
32 | ++ (20%-49% = ++) | 122 (GVVDPVHGV; listed as Homo sapiens) [compound 122]
33 | ++ (20%-49% = ++) | 123 (VLDPALPALV; listed as Homo sapiens) [compound 123]
34 | ++ (20%-49% = ++) | 124 (KVMATIEKV; listed as Homo sapiens) [compound 124]
35 | ++++ (> = 75% = ++++) | 125 (SLADYEHFV; listed as Homo sapiens) [compound 125]
36 | ++++ (> = 75% = ++++) | 126 (QMFQYFITV; listed as Homo sapiens) [compound 126]
37 | +++ (50%-75% = +++) | 127 (KLDGNELDL; listed as Homo sapiens) [compound 127]
38 | ++ (20%-49% = ++) | 128 (TQSPATLSV; listed as Homo sapiens) [compound 128]
39 | ++++ (> = 75% = ++++) | 129 (RLQDILWFL; listed as Homo sapiens) [compound 129]
40 | +++ (50%-75% = +++) | 130 (SLLGGTFVGI; listed as Homo sapiens) [compound 130]
41 | +++ (50%-75% = +++) | 131 (VTSNSGILGV; listed as Homo sapiens) [compound 131]
42 | +++ (50%-75% = +++) | 132 (ILGEVLAQL; listed as Homo sapiens) [compound 132]

Row | Peptide exchange (MHC class I binding score, peptide exchange yield) | Substance
43 | ++++ (> = 75% = ++++) | 133 (ALLPRLHQL; listed as Homo sapiens) [compound 133]
44 | +++ (50%-75% = +++) | 134 (GLAVPTPSV; listed as Homo sapiens) [compound 134]
45 | +++ (50%-75% = +++) | 135 (HLSTIIHEA; listed as Homo sapiens) [compound 135]
46 | ++ (20%-49% = ++) | 136 (FLFGGVLMTL; listed as Homo sapiens) [compound 136]
47 | +++ (50%-75% = +++) | 142 (ILVEGISTV; listed as Homo sapiens) [compound 142]
48 | +++ (50%-75% = +++) | 143 (ALLPELREV; listed as Homo sapiens) [compound 143]
49 | +++ (50%-75% = +++) | 145 (YLWATIQRI; listed as Homo sapiens) [compound 145]
50 | ++ (20%-49% = ++) | 146 (ALHFSEDEI; listed as Homo sapiens) [compound 146]
51 | ++++ (> = 75% = ++++) | 147 (YLMDDTVEI; listed as Homo sapiens) [compound 147]
52 | +++ (50%-75% = +++) | 148 (MLAGIAITV; listed as Homo sapiens) [compound 148]
53 | +++ (50%-75% = +++) | 152 (MMVGDLLEV; listed as Homo sapiens) [compound 152]
54 | ++++ (> = 75% = ++++) | 153 (FISERVEVV; listed as Homo sapiens) [compound 153]
55 | +++ (50%-75% = +++) | 154 (RLLGTEFQV; listed as Homo sapiens) [compound 154]
56 | +++ (50%-75% = +++) | 155 (LLNPVVEFV; listed as Homo sapiens) [compound 155]
57 | +++ (50%-75% = +++) | 156 (ILGDLSHLL; listed as Homo sapiens) [compound 156]
58 | +++ (50%-75% = +++) | 157 (TLTSLLAQA; listed as Homo sapiens) [compound 157]
59 | +++ (50%-75% = +++) | 234 (LLSPHNPAL; listed as Homo sapiens) [compound 234]
60 | +++ (50%-75% = +++) | 236 (STIAILNSV; listed as Homo sapiens) [compound 236]
61 | +++ (50%-75% = +++) | 237 (ALAPHLDDA; listed as Homo sapiens) [compound 237]
